Measured values taken from paper PMC11980386.
Values joined by “and” are separate entries in the source; they are usually repeats but may differ in a detail not shown here. Identical values can stand only once. Blank lines part the entries; values can stand above or below the substance they belong to.

Experiments:
[1] = biological target: CD0828 of Clostridioides difficile (annotated as a glutamate synthase, with an N-terminal rubredoxin-like domain) (Clostridioides difficile); test: SEC; Superdex S200 10/300 GL, 20 mM Tris-HCl pH 7.5, 18% glycerol, 150 mM NaCl; mass read against a second set of standards (ovalbumin, conalbumin, aldolase, ferritin, thyroglobulin)
[2] = biological target: Rubrerythrin Rbr (CD0825) of Clostridioides difficile (Clostridioides difficile); test: SEC; Superdex S200 10/300 GL, 20 mM Tris-HCl pH 7.5, 18% glycerol, 150 mM NaCl; mass read against protein standards
[3] = biological target: Superoxide reductase Sor (CD0827, desulfoferrodoxin) of Clostridioides difficile (Clostridioides difficile); test: SEC; Superdex S200 10/300 GL, 20 mM Tris-HCl pH 7.5, 150 mM NaCl, no glycerol; mass read against protein standards

stoichiometry N [1]: 2
Substance: CD0828 of Clostridioides difficile (annotated as a glutamate synthase, with an N-terminal rubredoxin-like domain) (natural protein)

stoichiometry N [2]: 4
Substance: Rubrerythrin Rbr (CD0825) of Clostridioides difficile (enzyme)

stoichiometry N [3]: 2 and 4
Substance: Superoxide reductase Sor (CD0827, desulfoferrodoxin) of Clostridioides difficile (enzyme)
